A short description of the data set: yeast display, Sf9 membrane polyspecificity reagent, FACS + sequencing; frameworks hold sequencing errors. In short, it runs like this: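 A nanobody's polyreactivity label depends on the gate it was sorted from. Yeast display cells were stained with 10% biotinylated, detergent-solubilized Sf9 membrane reagent for 1 hour at 4 °C, enriched on streptavidin microbeads and sorted by FACS. The low and high (top ~1%) gates were set on anti-HA fluorescence for expression and streptavidin fluorescence for reagent binding.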
“QVQLVESGGGLVQAGGSLRISCAASGSIFGYAMACYRQGPGKERELVAAITSSGGSTYYADSVKGRFTISRDNAKNTVYLHKNSLKPEDTAGYYCNAYLRWYITLLRFLAGGDYWGQGYQVTVSS”: the “polyreactivity (PSR sort gate)” value is “high polyreactivity”.

As to “QVQLVESGGGLVQAGGSLRLSCAASGSILYYNAMGWYRQAHGKERELVAAISTRGGSTYYADSVKGRFTISRDNAKNTVYLQMNSLKPEDTAVYYCAADHNVIWGYYYWGQGTQVTVSS”, the “polyreactivity (PSR sort gate)” value was “high polyreactivity”.

Turning to “QVQLVESGGGLVQAGGSLRLSCAASGSIFKYNAMGWYRPAPGKERELVAAISWSGGSTRYADSLKGRFTISRDNATNTGYLQMNSLKPEDTAVYYCAAKHGRNYAANALYGYWGQGTQVTVSS”, the “polyreactivity (PSR sort gate)” value is listed as “high polyreactivity”.

In the case of “QVQLVESGGGLVQAGGSHRLSCAASGRIFGCYTMGWYRQAPAKERELVAGITRRGGRTYYADSVKGRFTISRDTAKYTVYLQMNSLKPEDTAVYYCAVRSGVNFYYWGHGTQVTVSS”, the “polyreactivity (PSR sort gate)” value is on record as “high polyreactivity”.

On to “QVQLVESGGGLVQAGGSLRLSCAASGRIFVRNAMGWYRQAPGKERELVAAISWSSGGPYYADSVKGRFTISRDNAKNTVYLQMNSLKPDDTAVYYCNADPSRAGDYWGQGTQVTVSS”, for which the “polyreactivity (PSR sort gate)” value was “low polyreactivity”.

“QVQLVESGGGLDQAGGSLRLSCAASGSIFEGNGMGWYRQAPGKERELVAAITFRSGSTYYADSVKGRFTISRDNAKNTVYLQMNSLKPEDTAVYYCAADEYYQVSAYDYWGQGTQVTVSS”: the “polyreactivity (PSR sort gate)” value is on record as “low polyreactivity”.

For the sequence “QVQLVESVGGIVQAGGSLRLSCAASGRIFGTNTMGWYRQAPGKERELVAGISSSGDSTYYADSVKGRFTISRDNAKNTVYLQMNSLKPEDTAVYYCNVYDYPTYDYWGQGTQVTVSS”, the “polyreactivity (PSR sort gate)” value is “low polyreactivity”.

“QVHLLESGGGLVQAGGSLRLICAASGRILYPYALVWYRQAPGKETELVAAITFRGGNTYYADSVKARFTLSRDYAKNTVYLQMNSMKPEDTAVYFCAARKSPRSQVRGRSYYWGQGSQVTVSS”: the “polyreactivity (PSR sort gate)” value is reported as “high polyreactivity”.

Turning to “QVQLVESGGGLVQAGGSLRLSCAASGYTFTSNAMGWYRQAPGKERELVAAITNVGSTNYADSVKGRFTISRDNAKNTVYLQMNSLKPEDTAVYYCAADWDAVYLQTADYDYWGQGTQVTVSS”, the “polyreactivity (PSR sort gate)” value was “low polyreactivity”.

Take “QVQLVESGGGLVQAGGSLRLSCAASGITFRKYAMGWYRKAPGKERELVAAISVSGGSTYYADSVKGRFTISRDNAKNTVYLQMNSLKPEDTAVYYCATGRSTDKGYYYWGQGTQVTVSS”: the “polyreactivity (PSR sort gate)” value is on record as “high polyreactivity”.

As to “QVQLVESGGGLVQAGGSLRLSCAASGFTFTYNAMGWYRQAPGKERELVAGISWRGGTTYYADSVKGRFTISRDNAKNTVYLQMNSLKPEDTAVYYCAARNYYRGSGWPSNRGYYWGQGTQVTVSS”, the “polyreactivity (PSR sort gate)” value is on record as “high polyreactivity”.

Turning to “QVQLVESGGCLVQEGGSLRLSCAASGRIININAMGWSRHAPGKEREMVAAITWRSGSTYYADSVKGRFTISRDNAKNTVYLQLNSLKPEDTAVYFCAADFSQTRRPIRFYYWGQGTQVTVSS”, the “polyreactivity (PSR sort gate)” value is recorded as “high polyreactivity”.

For the sequence “QVQLVESAGGLVHAGGSLRLSCAASGNIFRWYAMGWYRQAPGKDRELVAAISSGGRTNYADSVKGRFTISRDNALNSVFLQMNSLKPEDTAVFYWYIVAGVTGRFYFWGQGTQVTVSS”, the “polyreactivity (PSR sort gate)” value was “low polyreactivity”.

For “QVQLVESGGGLVQAGGSLRLSCAASGRTFAYYAMGWYLQAPGKERELVAAISSGGGSTYYADSVKGRFTISRDNAKNTVYLQMNSLKPEDTAVYYCNKGFNYGGWFKKYGYWGQGTQVTVSS”, the “polyreactivity (PSR sort gate)” value is reported as “high polyreactivity”.

On to “QVQLGESGGGLVQAGGSLRLSCAASGRTFWSYAMGWYREAAGKERELVAAITSSGGTTNDADSVKGRFTISRDNAKNTVYLQMNSLKPEDTAVYYCAAYSWYFGSRYDYWGQGTQVTVSS”, for which the “polyreactivity (PSR sort gate)” value was “low polyreactivity”.

Turning to “QVQLVESGGGLVQAGGSLRLSCAASGFIFSNNAMGWYRQAPGKERELVAAITASGGRTYYADSVKGRFTISRDNAKNTVYLQMNSLKPEDTSVYYCAAALYDIMGYWGQGTQLTVSS”, the “polyreactivity (PSR sort gate)” value was “high polyreactivity”.

Consider “QDQLVESGGGLVQAGGSLRLSCDASGSIIQSYTMGWYRQAPGKERELVAAIDSGGSTYYADSVKGRFTISRDNAKNTVYLQMNSLKPEDTAVYYCAAEPDTYWYTYDYWGQGTQVTVSS”, for which the “polyreactivity (PSR sort gate)” value is reported as “low polyreactivity”.

Turning to “QVQLVESGGGVVQAGGSLRLSCAACGSTFRSYAMGWYRQAPGTERELVAAISSGGRTYYADSVKGRFTITRDNAKNPVYLPMNSLKPEDTAVYYCAARLYAYRWYGYAFKYEYWGHGTQVTVSS”, the “polyreactivity (PSR sort gate)” value is reported as “high polyreactivity”.

Take “QVQLVESRGGLVQAGGSLRLSCAASGRTFYSYAMGWSRQAPGKERELVAAITSSGGSTYYADSVKGRFTISRDNAKNTVYLQMNSLKPEDTAVYYCAAGKPYSSYWSWGYWTNLEDDYWGQGTQVTVSS”: the “polyreactivity (PSR sort gate)” value was “high polyreactivity”.

As to “QVQLVESGGGLVQAGGSLRLSCAASGRTFFTNAMGWSRQAPGKERELVATISQSGGSTYYADSVKGRFTISRDNAKNTVYLQMNCLKPEDTAVYYCAALSRYWVVRMDYWGQGTHVTVSS”, the “polyreactivity (PSR sort gate)” value is reported as “high polyreactivity”.

Take “QVQLVESGGGLVQAGGSLRLSCAASGIFTRYAMGWYRQAPGKERELVAAISRGGGSTYYADSVKGLFTISRDNAKNTCYLQMNSLKPEDTAVYYCNTYKRPRSPGPKFYYWGEGTQVTVSS”: the “polyreactivity (PSR sort gate)” value was “high polyreactivity”.

In the case of “QVQLVESGGGLVQAGGSLRLSCAASGRIFYIYAMGWYRQAPGKERELVAAISTGGGGTYYADSVKGRFTISRDNAKNTVYLQMNSLKPEDTAVYYCAVDSKPRYREFDYWGQGTQVTVSS”, the “polyreactivity (PSR sort gate)” value is recorded as “high polyreactivity”.

In the case of “QVQLVESGGGLVQAGGSLRLSCAASGRIFRAYTMGWYRPAPGKERELVAAISTRSGRTYYADSVKGRFTISRDKEKNTVYLQMNSLKPEDTAVYYCAADRSGSAWYGYWGQGTQVTVSS”, the “polyreactivity (PSR sort gate)” value is listed as “high polyreactivity”.

Turning to “QVQLVESGGGLVQAGGSLRLSCAASGSIFFYYAMGWYRQAPGKERELVATITSGGSTSYADSVKGRFTISRDNAKNTVYLQMNSLKPEDTAVYYCAARKVTKSTYNYWGQGTQVTVSS”, the “polyreactivity (PSR sort gate)” value was “low polyreactivity”.

Take “QVQLVESGGGLVQAGGSLRLSCAASGITFRFNAMGWYRQAPGKEREFVAAITYSGDSTYYADSVKGRFTISRDNAKNTVYLQKNSLKPEDTAVYYCAADYYAISRRIFYYWGQGTQVTVSS”: the “polyreactivity (PSR sort gate)” value is recorded as “low polyreactivity”.

Take “QVQLVESGGGLVQAGGSLRLSCAASGLIFRVYAMGRYRQAPGKERELVATITRGGRTYYADSVKGRFTISRDNAKNTVYLQMNSLKPEDTAVYYCAVLSVRRSYNYWGQGTQVTVSS”: the “polyreactivity (PSR sort gate)” value is reported as “high polyreactivity”.

Take “QVQLVESGGGLVQAGGSLRLSCDDSGSIFWWYTMGWYRQAPGKERELVAAITWNADGTYYADSVKGRFTISRDNAKNTVYLPINSLKPEDTAVYYCAADQYYLDWGGGYDYWGQGTQLTVSS”: the “polyreactivity (PSR sort gate)” value is given as “low polyreactivity”.

Take “QVQLVESGGGLVQAGGSLRLSCAASGLTFLVYAMGWYRQAPGKERELVAAITSIGDSTFYADSVKGRFTISRDNAKNTVYLQMNSLKPEDTAVYYCNADGPAGDIKFTLLDYDYWGQGTQVTVSS”: the “polyreactivity (PSR sort gate)” value is listed as “low polyreactivity”.

For “QVQLVESRGGLVQAGGSLRLSCASSGSTFVPNAMGWYRQAPGNERELDAAITFSGGTTYYADSVKGRFTISRDNAKNTVYFQMNSLKPEDTAVYDCAADYFSNLWWSGHAWRYYYWGQGTQVTVSS”, the “polyreactivity (PSR sort gate)” value was “low polyreactivity”.

“QVQLVESGGGLVQAGGSLRLSCAASGRIFLYYAMGWYRQAPGKERELVATISSGGSTHYADSVKGRFTISRDNAKNTVYLQMNSLKPEDTAVYYCAAYGYGWGLEPSTTEMDYWGQGTQVTVSS”: the “polyreactivity (PSR sort gate)” value is listed as “low polyreactivity”.

Take “QVQLVESGGGLVQAGGSLRLSCAASGIIFYLYVMGWYRQAPGKERELVAVISYSGDDTYYADSVKVRFTISRDNAKNTVYLQMNSLKPEDTAVYYCAADSIGYGFDYWGQGTQVTVSS”: the “polyreactivity (PSR sort gate)” value is “low polyreactivity”.

For the sequence “QVQLVESGGGLVQAGGSLRLSCAASGITFSYYAMGWYRPAPGKERELVAAISRTGTSTYYADSVKGRFTISRDNAKNTVYFQMNSLKPEDTAVYYCAAVPRHPYHDKYDYWGQGTQVTVSS”, the “polyreactivity (PSR sort gate)” value is “high polyreactivity”.

For the sequence “QVQLVESGGGIVQAGGSLRLSCAASGRTFVLNALGWYRQAPGKERELVAAITLGGGSTYADSVKGRFTISRDNAQNTVYLQMNSLKPEDTAVYYCAADFHYPDFEYWGQGTQVTVSS”, the “polyreactivity (PSR sort gate)” value is on record as “low polyreactivity”.

In the case of “QVQLVESGGVLVQAGGSLRLSCAASGFIFRSNGMGWYRQARGKERELVAVITSSTGSTSYADSVKGRFTISRDNAKNTVYLQMNSLKPEDTAVYSCAADYQFGRGAEPYVFFDPEMDYWGQGTQVTESS”, the “polyreactivity (PSR sort gate)” value was “low polyreactivity”.

Take “QVQLVESGGGLVQAGGSLRLSCAASGFTFASYVMGWYRQAPGKERELVAAISYSGGYTYYADSVKGRFTISRDNAKNTVYLQMNSLKPEDTAVYYCNARYLQGYSGRYGYWGQGTQVTVSS”: the “polyreactivity (PSR sort gate)” value is given as “high polyreactivity”.

On to “LVQLEDSGGGLVQGGGSLRLSCAASGRIFSANAMGCYRQATGKERELVASISTGGGRTYYADSVKGRFTISRDNAKNTVYLQMISLKPEDTAVYYCNAILRPFRVRGTYGTYGYDYWGQGTQVTVSS”, for which the “polyreactivity (PSR sort gate)” value is reported as “high polyreactivity”.

On to “QVQLVESGGGLVQAGGSLRLSCAASGFIFNLYAMGWYRQAPGKERELVAVISGSGVRTYYADSVKGRFTISRDNAKNTVYLQMNSLKPEDTAVYYCAARTYGGYEYWGQGTQVTVSS”, for which the “polyreactivity (PSR sort gate)” value is recorded as “high polyreactivity”.

With “QVQLVESCGGLVQAGGSLRLSCAASGRTFNSYAIGWYRNAPGKERELVAAISWIGGSTYYADSVKGRFTISRDNAKNTVYLQMNSLKPEDTAVYYCAADSYRFYSGYYYWGQGTQVTVSS”, the “polyreactivity (PSR sort gate)” value is given as “low polyreactivity”.

Take “QVKLVESGGGLVQARGSLRLSCAASGRIFTIYAKGWYRPAPGKERELVAAITRGGNTNYADSVKGRFTISRDNAKNTVYLQMNSLKPEDTAVYNCAARANVYTKKRDYWGQGTQVTVSS”: the “polyreactivity (PSR sort gate)” value is “high polyreactivity”.

As for “QVQLVESGGGLVQAGGSLRLSCDASGSIFNRNVMGWYRQAHGKERELVAVITGSGDSTFYADSVKGRFTISRDNAKNTVYLQRNSLIPDDTAVYYCNARLVSGGYYYWGLGTQVTVSS”, the “polyreactivity (PSR sort gate)” value is recorded as “low polyreactivity”.

In the case of “QVQLVESGGGLVLAGGSLRLSCAASGSTFDTYAMGWYRQAPGKERELVAAITSGGITNYADSVKGRFTISRDNAKNTVYVQMNSLKPEDTAVYYCAKEGFWPRQARRLDYWGQGTQVTVSS”, the “polyreactivity (PSR sort gate)” value is given as “low polyreactivity”.

(Values after the nanobody polyreactivity screen of Harvey et al. (2022).)
